These results are taken from paper PMC8823281 (Biochemistry, 2021).

Numbering of substitutions follows the chain as printed.

Experiment in all cases: immunostaining of cells or tissue
For assay [1], the target named is plasma membrane-targeted version of rat VGLUT3 (Rattus norvegicus, UniProt Q7TSF2).
Assay [2] deals with plasma membrane-targeted version of rat VGLUT2 (Rattus norvegicus, UniProt Q9JI12, point mutant).
In assay [3] the target is plasma membrane-targeted version of rat VGLUT1 (Rattus norvegicus, UniProt Q62634).
Sequence of plasma membrane-targeted version of rat VGLUT1 (Q62634 whole entry): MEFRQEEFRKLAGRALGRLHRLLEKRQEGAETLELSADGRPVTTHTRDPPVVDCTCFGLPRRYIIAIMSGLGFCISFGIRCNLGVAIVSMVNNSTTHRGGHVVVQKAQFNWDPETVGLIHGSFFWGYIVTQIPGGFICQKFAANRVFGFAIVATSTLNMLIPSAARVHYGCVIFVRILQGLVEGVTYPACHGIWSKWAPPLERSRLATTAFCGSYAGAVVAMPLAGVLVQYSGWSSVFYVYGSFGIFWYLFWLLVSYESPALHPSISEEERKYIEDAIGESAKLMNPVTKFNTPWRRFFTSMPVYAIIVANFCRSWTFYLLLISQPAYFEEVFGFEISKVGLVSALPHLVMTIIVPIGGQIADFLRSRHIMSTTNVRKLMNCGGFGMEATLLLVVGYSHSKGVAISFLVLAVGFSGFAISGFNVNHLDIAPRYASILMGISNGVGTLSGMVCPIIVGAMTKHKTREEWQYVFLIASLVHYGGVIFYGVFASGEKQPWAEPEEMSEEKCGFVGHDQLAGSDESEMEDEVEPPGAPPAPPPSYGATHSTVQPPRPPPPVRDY

Sequence of plasma membrane-targeted version of rat VGLUT3 (Q7TSF2 whole entry): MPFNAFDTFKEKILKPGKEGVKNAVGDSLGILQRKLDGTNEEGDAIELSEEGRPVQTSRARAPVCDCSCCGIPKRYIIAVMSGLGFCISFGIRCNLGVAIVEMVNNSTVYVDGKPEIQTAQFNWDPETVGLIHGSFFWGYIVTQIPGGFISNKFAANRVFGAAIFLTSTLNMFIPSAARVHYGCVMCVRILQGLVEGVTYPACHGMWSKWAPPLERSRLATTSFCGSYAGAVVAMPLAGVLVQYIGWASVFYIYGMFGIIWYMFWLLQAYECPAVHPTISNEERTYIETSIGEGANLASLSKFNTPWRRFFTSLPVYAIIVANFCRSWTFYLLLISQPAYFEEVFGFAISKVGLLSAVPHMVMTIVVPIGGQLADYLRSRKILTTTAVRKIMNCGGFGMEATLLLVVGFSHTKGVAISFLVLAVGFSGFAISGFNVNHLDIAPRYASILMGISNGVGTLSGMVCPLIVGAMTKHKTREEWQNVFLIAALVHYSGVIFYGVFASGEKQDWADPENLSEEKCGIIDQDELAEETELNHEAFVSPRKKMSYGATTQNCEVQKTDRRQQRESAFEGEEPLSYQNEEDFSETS
Sequence of plasma membrane-targeted version of rat VGLUT2 (Q9JI12 whole entry, change not shown): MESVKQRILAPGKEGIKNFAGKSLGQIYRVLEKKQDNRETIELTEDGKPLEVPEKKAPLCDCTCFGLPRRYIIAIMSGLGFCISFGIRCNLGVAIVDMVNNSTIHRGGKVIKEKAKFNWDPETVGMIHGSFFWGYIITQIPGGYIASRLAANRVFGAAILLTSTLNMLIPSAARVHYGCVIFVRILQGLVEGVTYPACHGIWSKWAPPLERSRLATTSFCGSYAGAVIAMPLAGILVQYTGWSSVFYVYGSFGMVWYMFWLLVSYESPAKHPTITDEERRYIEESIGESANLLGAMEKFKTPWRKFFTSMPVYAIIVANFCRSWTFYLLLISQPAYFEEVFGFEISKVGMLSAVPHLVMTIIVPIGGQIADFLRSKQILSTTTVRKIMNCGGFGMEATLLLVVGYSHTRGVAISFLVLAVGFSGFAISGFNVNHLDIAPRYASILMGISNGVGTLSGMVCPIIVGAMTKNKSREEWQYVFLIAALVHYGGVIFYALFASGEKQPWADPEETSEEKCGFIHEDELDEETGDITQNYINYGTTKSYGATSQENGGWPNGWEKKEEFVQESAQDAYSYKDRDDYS

B1: monoclonal antibody 9C6 (antibody, V domains shown)
VH: EVMLVESGGGLVKPGGSLKISCAASGFTFSWYAMSWVRQTPEKRLEWVATISSAGSYTYYPDSVKGRFTISRDNAKNTLYLQMSSLRSEDTAMYYCSRVPILGRVDYWGQGTTLTVSS
VL: QIVLTQSPAIMSASPGEKVTMTCSASSSVTYMHWYQQKSGTSPKTWIYDSSRLASGVPARFSGSGSGTSYSLTISSMEAEDAATYYCQHWSSNPPIFTFGSGTKLEIK
Consider B1, for which the figures for the binding result in assay [1], in assay [2] and in assay [3] were “no binding”, “binds” and “binds”, respectively.

B2: monoclonal antibody 8E11 (antibody, V domains shown)
VH: B1 VH
VL: B1 VL with I10F, H33N, A59P, H89Q
Consider B2, for which the figures for the binding result in assay [1] and in assay [3] were “no binding” and “binds”, respectively.
